These are literature values, as cited in publication PMC2613885.

For this series, the target named is Robo1 (Homo sapiens) (UniProt Q9Y6N7).
Sequence of Robo1 (Homo sapiens) (Q9Y6N7 26-897): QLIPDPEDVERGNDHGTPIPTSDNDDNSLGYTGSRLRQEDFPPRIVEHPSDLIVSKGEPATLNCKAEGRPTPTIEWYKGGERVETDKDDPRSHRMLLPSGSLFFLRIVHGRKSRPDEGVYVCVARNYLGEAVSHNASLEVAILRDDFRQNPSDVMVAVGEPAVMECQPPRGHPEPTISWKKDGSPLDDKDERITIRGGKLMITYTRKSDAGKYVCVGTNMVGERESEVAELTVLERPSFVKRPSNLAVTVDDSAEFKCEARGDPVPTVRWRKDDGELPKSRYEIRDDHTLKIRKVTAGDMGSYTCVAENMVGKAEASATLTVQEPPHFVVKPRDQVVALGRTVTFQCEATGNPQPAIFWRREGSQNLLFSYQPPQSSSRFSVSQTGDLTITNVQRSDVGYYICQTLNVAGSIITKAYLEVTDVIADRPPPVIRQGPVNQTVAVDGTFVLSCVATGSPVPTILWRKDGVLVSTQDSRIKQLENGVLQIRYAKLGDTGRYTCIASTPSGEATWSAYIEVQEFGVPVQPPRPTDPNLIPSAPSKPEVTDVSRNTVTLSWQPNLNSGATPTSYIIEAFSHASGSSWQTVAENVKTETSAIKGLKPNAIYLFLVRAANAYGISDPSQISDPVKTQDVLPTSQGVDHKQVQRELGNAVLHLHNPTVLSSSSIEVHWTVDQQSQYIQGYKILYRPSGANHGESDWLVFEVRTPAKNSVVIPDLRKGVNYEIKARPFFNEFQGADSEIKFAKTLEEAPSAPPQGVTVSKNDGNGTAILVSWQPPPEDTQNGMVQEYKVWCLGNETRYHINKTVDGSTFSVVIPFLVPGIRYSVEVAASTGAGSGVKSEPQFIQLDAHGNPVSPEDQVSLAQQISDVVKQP

Sequence of Slit2 (O94813 31-1529): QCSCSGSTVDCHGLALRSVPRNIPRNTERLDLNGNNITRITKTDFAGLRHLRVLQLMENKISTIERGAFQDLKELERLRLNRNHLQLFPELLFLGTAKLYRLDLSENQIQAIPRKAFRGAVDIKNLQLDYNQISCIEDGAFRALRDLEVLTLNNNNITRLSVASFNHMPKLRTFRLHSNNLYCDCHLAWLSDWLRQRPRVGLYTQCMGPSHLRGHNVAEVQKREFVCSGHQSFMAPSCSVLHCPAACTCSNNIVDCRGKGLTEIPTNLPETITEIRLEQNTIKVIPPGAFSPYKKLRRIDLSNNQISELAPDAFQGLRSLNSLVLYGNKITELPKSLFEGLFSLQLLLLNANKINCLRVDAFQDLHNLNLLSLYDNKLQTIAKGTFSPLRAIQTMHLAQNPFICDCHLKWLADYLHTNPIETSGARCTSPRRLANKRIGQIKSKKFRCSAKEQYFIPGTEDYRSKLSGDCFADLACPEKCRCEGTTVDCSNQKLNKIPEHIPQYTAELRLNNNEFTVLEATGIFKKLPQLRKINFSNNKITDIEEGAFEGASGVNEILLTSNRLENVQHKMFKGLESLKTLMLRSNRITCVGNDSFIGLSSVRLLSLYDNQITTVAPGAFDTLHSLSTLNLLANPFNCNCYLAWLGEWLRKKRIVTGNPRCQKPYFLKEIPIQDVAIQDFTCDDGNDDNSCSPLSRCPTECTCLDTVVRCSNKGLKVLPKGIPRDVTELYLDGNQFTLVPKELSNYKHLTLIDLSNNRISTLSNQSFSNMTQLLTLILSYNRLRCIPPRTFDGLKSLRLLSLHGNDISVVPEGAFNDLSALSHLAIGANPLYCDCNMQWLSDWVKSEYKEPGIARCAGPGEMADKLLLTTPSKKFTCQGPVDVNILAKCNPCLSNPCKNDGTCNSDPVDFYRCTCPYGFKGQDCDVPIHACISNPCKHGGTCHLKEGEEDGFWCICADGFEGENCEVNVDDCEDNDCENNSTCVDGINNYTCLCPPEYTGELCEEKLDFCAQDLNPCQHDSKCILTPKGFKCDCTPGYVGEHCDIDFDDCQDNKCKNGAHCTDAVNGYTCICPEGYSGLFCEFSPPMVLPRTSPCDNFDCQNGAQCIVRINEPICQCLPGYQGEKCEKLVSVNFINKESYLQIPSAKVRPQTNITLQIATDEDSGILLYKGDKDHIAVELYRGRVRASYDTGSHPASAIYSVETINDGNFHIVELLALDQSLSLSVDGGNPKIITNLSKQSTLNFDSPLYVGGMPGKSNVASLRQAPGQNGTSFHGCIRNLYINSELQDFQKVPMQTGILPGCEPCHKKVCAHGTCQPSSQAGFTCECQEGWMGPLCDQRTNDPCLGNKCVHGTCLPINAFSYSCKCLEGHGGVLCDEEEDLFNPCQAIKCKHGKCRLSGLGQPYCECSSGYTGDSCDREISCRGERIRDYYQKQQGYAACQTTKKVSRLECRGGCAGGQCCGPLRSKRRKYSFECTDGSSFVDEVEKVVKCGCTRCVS

The term Kd denotes the constant that tells how readily two partners part at equilibrium. For Slit2 (from UniProt O94813), the Kd was 9 nM.
